Experimental data from patent US20240417476A1 (ATYR PHARMA, published 2024).
Ends that are not written are not given here.

T1: NRP2b peptide (biotinylated) (human, biotin-conjugated, site not stated)
T1 construct: also called NRP2b isoform specific peptide
T1 peptide: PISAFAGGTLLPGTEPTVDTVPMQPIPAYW

T2: NRP2a_scan 3 peptide (biotinylated) (human, also: biotin-conjugated, site not given here)
T2 peptide: HEREGYEDEIDD

T3: NRP2a_scan 2 peptide (biotinylated) (human, also: biotin-conjugated, site not given here)
T3 peptide: PEIHEREGYEDE

T4: NRP2a_scan 1 peptide (biotinylated) (human, also: biotin-conjugated, site not given here)
T4 peptide: VDIPEIHEREGY

T5: NRP2a_scan 4 peptide (biotinylated) (human, also: biotin-conjugated, site not given here)
T5 peptide: EGYEDEIDDEYE

T6: NRP2a_scan 7 peptide (biotinylated) (human, also: biotin-conjugated, site not given here)
T6 peptide: EYEVDWSNSSSA

T7: human NRP2b expressed on Expi293F cells (human)
T7 construct: also called full length NRP2b
T7 chain: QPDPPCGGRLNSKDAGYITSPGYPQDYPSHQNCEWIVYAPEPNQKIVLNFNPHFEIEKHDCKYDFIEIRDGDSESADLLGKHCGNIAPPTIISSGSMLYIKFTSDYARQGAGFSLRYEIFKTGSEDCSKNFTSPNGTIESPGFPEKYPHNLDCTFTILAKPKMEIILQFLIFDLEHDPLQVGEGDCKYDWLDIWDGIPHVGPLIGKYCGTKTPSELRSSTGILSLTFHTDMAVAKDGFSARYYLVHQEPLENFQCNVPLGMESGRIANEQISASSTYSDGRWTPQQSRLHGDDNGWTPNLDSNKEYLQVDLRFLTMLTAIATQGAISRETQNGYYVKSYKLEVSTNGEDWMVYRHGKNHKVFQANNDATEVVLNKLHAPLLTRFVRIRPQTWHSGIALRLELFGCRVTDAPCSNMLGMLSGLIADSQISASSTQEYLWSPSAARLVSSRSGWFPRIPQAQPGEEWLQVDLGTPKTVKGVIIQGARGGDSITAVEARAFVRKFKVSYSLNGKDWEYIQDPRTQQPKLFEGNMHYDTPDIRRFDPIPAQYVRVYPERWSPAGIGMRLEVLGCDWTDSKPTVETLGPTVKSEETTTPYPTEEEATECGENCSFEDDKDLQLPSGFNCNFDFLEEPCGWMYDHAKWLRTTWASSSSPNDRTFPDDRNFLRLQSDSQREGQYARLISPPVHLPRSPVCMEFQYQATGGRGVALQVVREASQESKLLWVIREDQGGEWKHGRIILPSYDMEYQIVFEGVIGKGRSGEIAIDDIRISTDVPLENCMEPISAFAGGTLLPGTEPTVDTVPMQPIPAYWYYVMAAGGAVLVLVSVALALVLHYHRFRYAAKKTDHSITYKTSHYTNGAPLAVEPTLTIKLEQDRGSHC

T8: NRP2v3
T8 construct: not the NanoLuc-tagged construct m33; also called human NRP2 v3 expressed on Expi293F cells; NRP2a v3
T8 chain: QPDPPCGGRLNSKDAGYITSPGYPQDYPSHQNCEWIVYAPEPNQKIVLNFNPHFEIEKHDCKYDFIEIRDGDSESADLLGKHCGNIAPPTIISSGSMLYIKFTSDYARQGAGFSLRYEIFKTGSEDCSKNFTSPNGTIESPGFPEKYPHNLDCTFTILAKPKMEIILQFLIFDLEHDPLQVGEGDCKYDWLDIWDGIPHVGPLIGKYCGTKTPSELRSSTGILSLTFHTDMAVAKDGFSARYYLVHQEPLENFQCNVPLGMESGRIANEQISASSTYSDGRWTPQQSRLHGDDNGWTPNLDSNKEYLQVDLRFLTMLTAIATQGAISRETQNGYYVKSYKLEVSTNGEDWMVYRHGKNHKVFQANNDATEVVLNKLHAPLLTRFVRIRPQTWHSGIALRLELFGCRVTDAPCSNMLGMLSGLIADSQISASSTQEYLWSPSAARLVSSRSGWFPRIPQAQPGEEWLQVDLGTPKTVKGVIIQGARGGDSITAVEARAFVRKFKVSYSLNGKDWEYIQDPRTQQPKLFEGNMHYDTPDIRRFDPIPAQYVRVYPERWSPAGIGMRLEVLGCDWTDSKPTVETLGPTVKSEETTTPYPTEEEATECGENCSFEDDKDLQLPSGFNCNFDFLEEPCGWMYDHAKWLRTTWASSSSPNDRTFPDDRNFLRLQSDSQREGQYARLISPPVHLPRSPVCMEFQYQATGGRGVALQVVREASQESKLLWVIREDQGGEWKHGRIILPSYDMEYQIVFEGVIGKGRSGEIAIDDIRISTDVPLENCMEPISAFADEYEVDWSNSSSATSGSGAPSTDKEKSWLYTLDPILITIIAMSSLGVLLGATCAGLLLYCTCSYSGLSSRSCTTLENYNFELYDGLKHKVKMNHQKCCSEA

T9: Mid-NRP2A peptide (biotinylated) (human, biotin-conjugated, site not stated)
T9 peptide: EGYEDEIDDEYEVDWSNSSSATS

T10: NRP2a_scan 6 peptide (biotinylated) (human, also: biotin-conjugated, site not given here)
T10 peptide: IDDEYEVDWSNS

T11: NRP2a_scan 5 peptide (biotinylated) (human, also: biotin-conjugated, site not given here)
T11 peptide: EDEIDDEYEVDW

T12: Mid-mNRP2A peptide (biotinylated) (mouse, biotin-conjugated, site not stated)
T12 peptide: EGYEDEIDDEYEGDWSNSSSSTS


Assays:
[1] = target: T1, NRP2b peptide (biotinylated); assay: peptide ELISA
[2] = target: Short NRP2A peptide (biotinylated) (human, biotin-conjugated, site not stated); assay: BLI, peptide on sensor;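 also: octet RED96e biolayer interferometry with biotin-conjugated NRP2 peptides spanning isoform-specific regions (human and mouse) loaded on biosensors, antibodies applied at 50 nM, association read over 300 s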
[3] = target: T2, NRP2a_scan 3 peptide (biotinylated); assay: BLI, peptide on sensor;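 also: octet RED96e biolayer interferometry with biotin-conjugated NRP2 peptides spanning isoform-specific regions (human and mouse) loaded on biosensors, antibodies applied at 50 nM, association read over 300 s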
Method: (§1) Biolayer interferometry (BLI) experiments were carried out on an Octet RED96e instrument (Sartorius) to further characterize antibody affinities to the NRP2 peptides screened above. Antibodies were epitope mapped using peptides that span the NRP2a isoform specific region; antibodies were also tested for reactivity to an NRP2b isoform specific peptide and cross-reactivity to mNRP2a and mNRP2b peptides (see Table E2 for peptide sequences).
(§2) Antibodies and peptides were diluted in 1×PBS, 0.1% BSA, 0.02% Tween 20, pH 7.4. […] The biosensors were then dipped into 50 nM solutions of each antibody and read for 300s. The biosensors were regenerated in 10 mM glycine, pH 1.5 in between cycles of different antibodies.

[4] = target: T3, NRP2a_scan 2 peptide (biotinylated); assay: BLI, peptide on sensor;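 also: octet RED96e biolayer interferometry with biotin-conjugated NRP2 peptides spanning isoform-specific regions (human and mouse) loaded on biosensors, antibodies applied at 50 nM, association read over 300 s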
Method: as §1, §2

[5] = target: T4, NRP2a_scan 1 peptide (biotinylated); assay: BLI, peptide on sensor;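 also: octet RED96e biolayer interferometry with biotin-conjugated NRP2 peptides spanning isoform-specific regions (human and mouse) loaded on biosensors, antibodies applied at 50 nM, association read over 300 s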
Method: as §1, §2

[6] = target: T5, NRP2a_scan 4 peptide (biotinylated); assay: BLI, peptide on sensor
Method: as §1, §2

[7] = target: T6, NRP2a_scan 7 peptide (biotinylated); assay: BLI, peptide on sensor
Method: as §1, §2

[8] = target: T13, NRP2A peptide (biotinylated) (human, biotin-conjugated, site not stated); assay: BLI, isoform peptide on sensor, 50 nM antibody
T13 construct: also called NPR2A; NRP2a specific peptide

[9] = target: T7, human NRP2b expressed on Expi293F cells; assay: flow cytometry, Expi293F cells transfected with the target, fluorescent anti-mouse secondary; MFI signal relative to mock-transfected cells
Method: (§3) Signal to noise was calculated as the staining intensity of transfected cells compared to an un-transfected ‘mock’ population.

[10] = target: T14, Human NRP2a v2 (926aa) in pBiT2.1-C with C-terminal split NanoLuc tag, expressed in Expi293 cells (human, UniProt O60462 23-931); assay: CCL21-induced NRP2a/CCR7 receptor dimerization (NanoBiT, Example 7); mark beside the epitope box
T14 construct: cDNA Origene RCC220706, isoform 2; also called pBiT2.1-C-NRP2v2 (isoform 2); NRP2 v2; not shown: vector-encoded spacer and small split NanoLuc fragment (pBiT2.1-C)

NRP2v3 = target: T8, NRP2v3; assay: flow cytometry, Expi293F cells transfected with the target, fluorescent anti-mouse secondary; MFI signal relative to mock-transfected cells
Method: as §3

[11] = target: T15, mNRP2A peptide (biotinylated) (mouse, biotin-conjugated, site not stated); assay: BLI, peptide on sensor, 50 nM antibody
T15 construct: also called mouse NRP2 isoform a peptide

[12] = target: T9, Mid-NRP2A peptide (biotinylated); assay: BLI, peptide on sensor, 50 nM antibody
[13] = target: T10, NRP2a_scan 6 peptide (biotinylated); assay: BLI, peptide on sensor, 50 nM antibody
[14] = target: T11, NRP2a_scan 5 peptide (biotinylated); assay: BLI, peptide on sensor, 50 nM antibody
[15] = target: T12, Mid-mNRP2A peptide (biotinylated); assay: BLI, peptide on sensor
Method: as §1, §2

[16] = target: T9, Mid-NRP2A peptide (biotinylated); assay: BLI, peptide on sensor
Method: as §1, §2

[17] = target: T10, NRP2a_scan 6 peptide (biotinylated); assay: BLI, peptide on sensor
Method: as §1, §2

[18] = target: T11, NRP2a_scan 5 peptide (biotinylated); assay: BLI, peptide on sensor
Method: as §1, §2

[19] = target: T16, human NRP2a v2 expressed on Expi293F cells (human, UniProt O60462 23-931); assay: flow cytometry, Expi293F cells transfected with the target, fluorescent anti-mouse secondary; MFI signal relative to mock-transfected cells
T16 construct: cDNA Origene RCC220706; also called NRP2 v2
Method: as §3

[20] = target: T17, mNRP2b peptide (biotinylated) (mouse, biotin-conjugated, site not stated); assay: BLI, peptide on sensor, 50 nM antibody
T17 sequence (peptide, as listed by the source): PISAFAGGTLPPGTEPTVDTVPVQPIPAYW

[21] = target: T1, NRP2b peptide (biotinylated); assay: BLI, peptide on sensor
[22] = target: T17, mNRP2b peptide (biotinylated); assay: BLI, peptide on sensor
Method: as §1, §2

Binder	binding result [2]	binding result [3]	binding result [4]	binding result [5]	binding result [6]	binding result [7]	binding result [8]	binding result [9]	binding result (NRP2v3)	binding result [11]	binding result [15]	binding result [16]	binding result [17]	binding result [18]	binding result [19]	binding result [20]	further results
aNRP2-407v2 (antibody, V domains shown, Mouse monoclonal) VH: EVQLQQSGPELVKPGASVTISCKASGYSFTGYYMHWVKQSHVKSLEWIGRINPYNGATSYSQNFKDKASLTIDKSSSTAYMELHSLTSEDSAVYYCAREETTAPFTYWGQGTLVTVSA VL: DIVMSQSPSSLAVSVGEKVTMSCKSSQSLLYSSNQKNYLAWYQQKPGQSPKLLIYWASTRESGVPDRFTGSGSGTDFTLTISSVQAEDLAVYFCQHYYSYPPTFGGGTKLEIK	no binding (tested: 50 nM)	no binding (tested: 50 nM)	no binding (tested: 50 nM)	no binding (tested: 50 nM)	no binding (tested: 50 nM)	no binding (tested: 50 nM)	binds		binds	binds	no binding (tested: 50 nM)	no binding (tested: 50 nM)	no binding (tested: 50 nM)	no binding (tested: 50 nM)	binds	binds	
aNRP2-37v2 (antibody, V domains shown, Mouse monoclonal (captured by anti-murine kappa, detected with anti-mouse IgG)) VH: DVKLVESGEGLVKPGGSLKLSCAASGFTFSDYALSWVRQTPEKRLEWVAYISSGGDYIYYADTVRGRFTISRDNARNTLYLQMSSLQSEDTAIYYCTRGGQDDYWGQGTTLTVSS VL: DVVMTQTPLSLPVILGDQASISCRSSQSLVHSNGNTYLQWYLQKPGQSPKLLIYKVSNRFSGVPDRFSGSGSGTDFTLKISRVEAEDLGVYFCSQSTHVPFTFGSGTNLEIK	no binding (tested: 50 nM)	no binding (tested: 50 nM)	no binding (tested: 50 nM)	no binding (tested: 50 nM)	no binding (tested: 50 nM)	no binding (tested: 50 nM)	binds	no binding	no binding			no binding (tested: 50 nM)	no binding (tested: 50 nM)	no binding (tested: 50 nM)	binds		binding result [21]: no binding (tested: 50 nM); binding result [22]: no binding (tested: 50 nM)

More lines, main results first:

binding result [2]	binding result [3]	binding result [4]	binding result [5]	binding result [6]	binding result [7]	binding result [8]	binding result [9]	binding result (NRP2v3)	binding result [11]	binding result [15]	binding result [16]	binding result [17]	binding result [18]	binding result [19]	binding result [20]	Binder	further results
no binding (tested: 50 nM)	no binding (tested: 50 nM)	no binding (tested: 50 nM)	no binding (tested: 50 nM)	no binding (tested: 50 nM)	no binding (tested: 50 nM)	binds	no binding	binds	binds							aNRP2-402v2 (antibody, V domains shown, Mouse monoclonal) VH: EVQLVESGGDLVKPGGSLKLSCAASGFTFSNYAMSWVRQTPEKRLEWVASISDGGSYTYYPDNVKGRFTISRDSAKKSLYLQMSHLKSEDTAMYYCTKDGGPREGYFDVWGTGTTVTVSS VL: DVLMTQTPLSLPVSLGDQASISCRSSQSIVHSNGNTYLEWYLQKPGQSPKLLIYKVSNRFSGVPDRFSGSGSGTDFTLKISRVEAEDLGVYYCFQGSHVPYTFGGGTKLEIK	binding result [1]: no binding (tested: <3x blank); blocks receptor dimerization [10]: < 50%; binding result [12]: binds; binding result [13]: binds; binding result [14]: binds
no binding (tested: 50 nM)	no binding (tested: 50 nM)	no binding (tested: 50 nM)	no binding (tested: 50 nM)	no binding (tested: 50 nM)	no binding (tested: 50 nM)	binds		binds	binds	no binding (tested: 50 nM)	no binding (tested: 50 nM)	no binding (tested: 50 nM)	no binding (tested: 50 nM)	binds	binds	aNRP2-406v2 (antibody, V domains shown, Mouse monoclonal) VH: EVQLQQSGPELVKPGASVKISCKASGYSFTGYFMNWVKQSHGKSLEWIGRINPYNGDTFYNQKFKGKATLTVDKSSSTAHMALLSLTSEDSAVYYCGREVAEVPFDYWGQGTTLTVSS VL: not shown	
